# Values quoted from earlier work as cited in PMC10866841.
# Where two headings read alike, the source gives them in different places.
# How the values were obtained:
# [1] = target: oligomeric amyloid-β (Homo sapiens) (UniProt P05067)
# [2] = target: C4d C4d (Homo sapiens) (UniProt P0C0L4)
# [3] = target: oligomeric amyloid-β (Homo sapiens) (UniProt P05067); remark: listed apart in the source
# [4] = target: C4d C4d (Homo sapiens) (UniProt P0C0L4); remark: listed apart in the source
# PIRB, sequence (P97484 25-642): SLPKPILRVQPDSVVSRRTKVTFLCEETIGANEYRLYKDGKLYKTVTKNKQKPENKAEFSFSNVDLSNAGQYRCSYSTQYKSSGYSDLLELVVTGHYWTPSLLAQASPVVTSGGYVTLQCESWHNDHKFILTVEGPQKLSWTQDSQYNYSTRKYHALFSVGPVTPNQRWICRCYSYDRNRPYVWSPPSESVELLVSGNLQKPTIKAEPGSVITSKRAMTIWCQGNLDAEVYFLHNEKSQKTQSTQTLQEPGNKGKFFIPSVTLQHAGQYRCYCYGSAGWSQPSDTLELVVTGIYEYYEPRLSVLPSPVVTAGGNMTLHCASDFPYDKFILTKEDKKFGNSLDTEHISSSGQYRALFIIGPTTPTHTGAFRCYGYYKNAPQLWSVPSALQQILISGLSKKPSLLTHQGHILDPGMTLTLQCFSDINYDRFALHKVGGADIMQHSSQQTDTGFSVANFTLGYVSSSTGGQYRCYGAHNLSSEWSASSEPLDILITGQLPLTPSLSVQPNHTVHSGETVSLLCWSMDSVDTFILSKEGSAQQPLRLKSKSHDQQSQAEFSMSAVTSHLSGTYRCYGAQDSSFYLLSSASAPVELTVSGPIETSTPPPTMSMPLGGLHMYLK
# LILRB2, sequence (Q8N423 22-460): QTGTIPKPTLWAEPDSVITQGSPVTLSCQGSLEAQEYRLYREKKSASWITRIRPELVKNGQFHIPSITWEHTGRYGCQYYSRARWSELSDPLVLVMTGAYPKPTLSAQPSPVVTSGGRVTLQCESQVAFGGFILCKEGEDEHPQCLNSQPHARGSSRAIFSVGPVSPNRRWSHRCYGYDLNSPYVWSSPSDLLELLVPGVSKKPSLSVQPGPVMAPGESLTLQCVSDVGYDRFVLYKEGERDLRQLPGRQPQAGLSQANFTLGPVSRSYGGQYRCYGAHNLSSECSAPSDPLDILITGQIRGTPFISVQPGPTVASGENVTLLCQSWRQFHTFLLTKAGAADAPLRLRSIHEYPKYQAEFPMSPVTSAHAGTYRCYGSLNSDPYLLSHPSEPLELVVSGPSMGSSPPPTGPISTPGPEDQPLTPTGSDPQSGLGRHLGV
# oligomeric amyloid-β (Homo sapiens), sequence (P05067 672-713): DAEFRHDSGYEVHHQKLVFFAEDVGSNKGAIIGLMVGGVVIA
# C4d C4d (Homo sapiens), sequence (P0C0L4 957-1336): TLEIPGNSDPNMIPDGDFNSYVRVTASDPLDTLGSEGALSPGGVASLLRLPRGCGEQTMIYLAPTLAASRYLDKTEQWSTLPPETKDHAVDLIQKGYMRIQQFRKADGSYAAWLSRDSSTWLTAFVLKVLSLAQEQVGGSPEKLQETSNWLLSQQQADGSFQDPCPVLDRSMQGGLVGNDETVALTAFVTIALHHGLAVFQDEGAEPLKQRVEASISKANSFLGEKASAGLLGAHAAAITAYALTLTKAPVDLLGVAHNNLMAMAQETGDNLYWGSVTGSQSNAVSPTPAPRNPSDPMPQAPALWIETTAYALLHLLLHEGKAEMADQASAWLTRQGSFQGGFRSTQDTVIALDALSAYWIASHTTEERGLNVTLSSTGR
Substance,Kd [1],Kd [2],Kd [3],Kd [4]
LILRB2 (from UniProt Q8N423),0.18 µM,0.63 µM,,
PIRB (from UniProt P97484),,,0.18 µM,0.63 µM
